One variant from IntAct's records for PubMed 17254968 can be followed below.

B1: Cellular tumor antigen p53 (Mus musculus), P02340 (parent)
chain: MTAMEESQSDISLELPLSQETFSGLWKLLPPEDILPSPHCMDDLLLPQDVEEFFEGPSEALRVSGAPAAQDPVTETPGPVAPAPATPWPLSSFVPSQKTYQGNYGFHLGFLQSGTAKSVMCTYSPPLNKLFCQLAKTCPVQLWVSATPPAGSRVRAMAIYKKSQHMTEVVRRCPHHERCSDGDGLAPPQHLIRVEGNLYPEYLEDRQTFRHSVVVPYEPPEAGSEYTTIHYKYMCNSSCMGGMNRRPILTIITLEDSSGNLLGRDSFEVRVCACPGRDRRTEEENFRKKEVLCPELPPGSAKRALPTCTSASPPQKKKPLDGEYFTLKIRGRKRFEMFRELNEALELKDAHATEESGDSRAHSSYLKTKKGQSTSRHKKTMVKKVGPDSD

In this assay the parent is B1. Particulars: with mapk5_mouse Mapkapk5, O54992.
mapk5_mouse Mapkapk5, O54992, sequence (O54992 whole entry): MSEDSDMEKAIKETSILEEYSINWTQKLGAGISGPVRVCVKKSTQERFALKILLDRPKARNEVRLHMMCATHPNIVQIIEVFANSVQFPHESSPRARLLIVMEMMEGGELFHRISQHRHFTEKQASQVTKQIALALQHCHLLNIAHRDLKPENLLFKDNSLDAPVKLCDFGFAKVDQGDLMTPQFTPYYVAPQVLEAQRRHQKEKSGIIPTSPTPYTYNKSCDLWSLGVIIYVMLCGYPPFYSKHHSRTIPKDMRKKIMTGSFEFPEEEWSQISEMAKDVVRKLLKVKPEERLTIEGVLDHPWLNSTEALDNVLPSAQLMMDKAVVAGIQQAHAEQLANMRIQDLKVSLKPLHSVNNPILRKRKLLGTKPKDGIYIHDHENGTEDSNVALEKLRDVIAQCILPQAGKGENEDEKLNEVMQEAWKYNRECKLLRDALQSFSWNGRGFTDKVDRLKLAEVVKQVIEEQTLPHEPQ
For the variant MTAMEESQSDISLELPLSQETFSGLWKLLPPEDILPDPHCMDDLLLPQDVEEFFEGPSEALRVSGAPAAQDPVTETPGPVAPAPATPWPLSSFVPSQKTYQGNYGFHLGFLQSGTAKSVMCTYSPPLNKLFCQLAKTCPVQLWVSATPPAGSRVRAMAIYKKSQHMTEVVRRCPHHERCSDGDGLAPPQHLIRVEGNLYPEYLEDRQTFRHSVVVPYEPPEAGSEYTTIHYKYMCNSSCMGGMNRRPILTIITLEDSSGNLLGRDSFEVRVCACPGRDRRTEEENFRKKEVLCPELPPGSAKRALPTCTSASPPQKKKPLDGEYFTLKIRGRKRFEMFRELNEALELKDAHATEESGDSRAHSSYLKTKKGQSTSRHKKTMVKKVGPDSD [S37D], the “effect of a mutation on the interaction” value is “disrupting interaction”.
